According to patent publication US20060246046A1 (published 2006):

T1: factor XIIIa (human, UniProt P00488 39-732)
T1 sequence (looked up): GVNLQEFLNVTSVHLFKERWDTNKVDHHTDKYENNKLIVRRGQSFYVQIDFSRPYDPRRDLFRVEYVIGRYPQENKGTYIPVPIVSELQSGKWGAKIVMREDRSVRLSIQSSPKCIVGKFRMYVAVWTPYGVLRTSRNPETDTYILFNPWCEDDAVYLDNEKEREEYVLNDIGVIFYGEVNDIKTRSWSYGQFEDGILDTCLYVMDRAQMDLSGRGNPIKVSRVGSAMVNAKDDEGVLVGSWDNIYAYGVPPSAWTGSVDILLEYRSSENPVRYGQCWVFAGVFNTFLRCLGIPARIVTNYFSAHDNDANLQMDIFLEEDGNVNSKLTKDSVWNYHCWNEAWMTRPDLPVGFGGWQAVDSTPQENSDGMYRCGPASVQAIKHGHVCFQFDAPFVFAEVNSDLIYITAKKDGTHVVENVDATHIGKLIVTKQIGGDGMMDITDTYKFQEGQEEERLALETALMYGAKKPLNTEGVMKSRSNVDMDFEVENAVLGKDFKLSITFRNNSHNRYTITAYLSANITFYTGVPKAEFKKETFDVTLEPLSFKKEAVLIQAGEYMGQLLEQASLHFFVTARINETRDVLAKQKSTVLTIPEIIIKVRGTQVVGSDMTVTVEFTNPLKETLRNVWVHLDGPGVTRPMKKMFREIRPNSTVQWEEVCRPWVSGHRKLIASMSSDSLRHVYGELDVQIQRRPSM

B1: 20 amino acid-long tridegin peptide SEQ ID NO.13 (peptide)
peptide: Ac-DLECAQDQYCAFIPQCRPRS-NH2
modifications: cysteine pairing not given here
B2: 20 amino acid-long tridegin peptide SEQ ID NO.14 (peptide)
peptide: Ac-ECAQDQYCAFIPQCRPRSEL-NH2
modifications: cysteine pairing not given here
B3: 20 amino acid-long tridegin peptide SEQ ID NO.18 (peptide)
peptide: Ac-AFIPQCRPRSELIKPMDDIY-NH2
B4: 20 amino acid-long tridegin peptide SEQ ID NO.8 (peptide)
peptide: Ac-IPNPRCWCGADLECAQDQYC-NH2
modifications: cysteine pairing not given here
B5: 20 amino acid-long tridegin peptide SEQ ID NO.22 (peptide)
peptide: Ac-RSELIKPMDDIYQRPVEFPN-NH2
B6: 20 amino acid-long tridegin peptide SEQ ID NO.15 (peptide)
peptide: Ac-AQDQYCAFIPQCRPRSELIK-NH2
modifications: cysteine pairing not given here
B7: 20 amino acid-long tridegin peptide SEQ ID NO.6 (peptide)
peptide: Ac-WHQGIPNPRCWCGADLECAQ-NH2
modifications: cysteine pairing not given here
B8: 20 amino acid-long tridegin peptide SEQ ID NO.12 (peptide)
peptide: Ac-GADLECAQDQYCAFIPQCRP-NH2
modifications: cysteine pairing not given here
B9: 20 amino acid-long tridegin peptide SEQ ID NO.11 (peptide)
peptide: Ac-WCGADLECAQDQYCAFEPQC-NH2
modifications: cysteine pairing not given here
B10: 20 amino acid-long tridegin peptide SEQ ID NO.19 (peptide)
peptide: Ac-IPQCRPRSELIKPMDDIYQR-NH2
B11: 20 amino acid-long tridegin peptide SEQ ID NO.3 (peptide)
peptide: Ac-LLPCKEWHQGIPNPRCWCGA-NH2
modifications: cysteine pairing not given here
B12: 20 amino acid-long tridegin peptide SEQ ID NO.23 (peptide)
peptide: Ac-ELIKPMDDIYQRPVEFPNLP-NH2
B13: 20 amino acid-long tridegin peptide SEQ ID NO.21 (peptide)
peptide: Ac-RPRSELIKPMDDIYQRPVEF-NH2
B14: 20 amino acid-long tridegin peptide SEQ ID NO.5 (peptide)
peptide: Ac-KEWHQGIPNPRCWCGADLEC-NH2
modifications: cysteine pairing not given here
B15: 20 amino acid-long tridegin peptide SEQ ID NO.7 (peptide)
peptide: Ac-QGIPNPRCWCGADLECAQDQ-NH2
modifications: cysteine pairing not given here
B16: 20 amino acid-long tridegin peptide SEQ ID NO.16 (peptide)
peptide: Ac-DQYCAFIPQCRPRSELIKPM-NH2
modifications: cysteine pairing not given here
B17: 20 amino acid-long tridegin peptide SEQ ID NO.10 (peptide)
peptide: Ac-RCWCGADLECAQDQYCAFIP-NH2
modifications: cysteine pairing not given here
B18: 20 amino acid-long tridegin peptide SEQ ID NO.17 (peptide)
peptide: Ac-YCAFEPQCRPRSELIKPMDD-NH2
modifications: cysteine pairing not given here
B19: 20 amino acid-long tridegin peptide SEQ ID NO.4 (peptide)
peptide: Ac-PCKEWHQGIPNPRCWCGADL-NH2
modifications: cysteine pairing not given here
B20: 20 amino acid-long tridegin peptide SEQ ID NO.9 (peptide)
peptide: Ac-NPRCWCGADLECAQDQYCAF-NH2
modifications: cysteine pairing not given here
B21: 20 amino acid-long tridegin peptide SEQ ID NO.20 (peptide)
peptide: Ac-QCRPRSELIKPMDDIYQRPV-NH2
B22: 20 amino acid-long tridegin peptide SEQ ID NO.2 (peptide)
peptide: Ac-MKLLPCKEWHQGIPNPRCWC-NH2
modifications: cysteine pairing not given here
B23: recombinant wild-type tridegin polypeptide (SEQ ID No. 1) from Escherichia coli (protein, not shown: small tags and cut ends)
chain: MKLLPCKEWHQGIPNPRCWCGADLECAQDQYCAFIPQCRPRSELIKPMDDIYQRPVEFPNLPLKPREE
B24: modified tridegin M48A (protein, not shown: small tags and cut ends)
chain: MKLLPCKEWHQGIPNPRCWCGADLECAQDQYCAFIPQCRPRSELIKPADDIYQRPVEFPNLPLKPREE
B25: modified tridegin Cys variant C18A (protein, not shown: small tags and cut ends)
chain: MKLLPCKEWHQGIPNPRAWCGADLECAQDQYCAFIPQCRPRSELIKPMDDIYQRPVEFPNLPLKPREE
B26: modified tridegin Cys variant C06A (protein, not shown: small tags and cut ends)
chain: MKLLPAKEWHQGIPNPRCWCGADLECAQDQYCAFIPQCRPRSELIKPMDDIYQRPVEFPNLPLKPREE
B27: modified tridegin K02A (protein, not shown: small tags and cut ends)
chain: MALLPCKEWHQGIPNPRCWCGADLECAQDQYCAFIPQCRPRSELIKPMDDIYQRPVEFPNLPLKPREE
B28: modified tridegin N60A (protein, not shown: small tags and cut ends)
chain: MKLLPCKEWHQGIPNPRCWCGADLECAQDQYCAFIPQCRPRSELIKPMDDIYQRPVEFPALPLKPREE
B29: modified tridegin K07A (protein, not shown: small tags and cut ends)
chain: MKLLPCAEWHQGIPNPRCWCGADLECAQDQYCAFIPQCRPRSELIKPMDDIYQRPVEFPNLPLKPREE
B30: modified tridegin Cys variant C20A (protein, not shown: small tags and cut ends)
chain: MKLLPCKEWHQGIPNPRCWAGADLECAQDQYCAFIPQCRPRSELIKPMDDIYQRPVEFPNLPLKPREE
B31: modified tridegin G12A (protein, not shown: small tags and cut ends)
chain: MKLLPCKEWHQAIPNPRCWCGADLECAQDQYCAFIPQCRPRSELIKPMDDIYQRPVEFPNLPLKPREE
B32: modified tridegin D50A (protein, not shown: small tags and cut ends)
chain: MKLLPCKEWHQGIPNPRCWCGADLECAQDQYCAFIPQCRPRSELIKPMDAIYQRPVEFPNLPLKPREE
B33: modified tridegin D50A, P55L (protein, not shown: small tags and cut ends)
chain: MKLLPCKEWHQGIPNPRCWCGADLECAQDQYCAFIPQCRPRSELIKPMDAIYQRLVEFPNLPLKPREE
B34: modified tridegin F34A (protein, not shown: small tags and cut ends)
chain: MKLLPCKEWHQGIPNPRCWCGADLECAQDQYCAAIPQCRPRSELIKPMDDIYQRPVEFPNLPLKPREE
B35: modified tridegin Cys variant C26A (protein, not shown: small tags and cut ends)
chain: MKLLPCKEWHQGIPNPRCWCGADLEAAQDQYCAFIPQCRPRSELIKPMDDIYQRPVEFPNLPLKPREE
B36: modified tridegin H10A (protein, not shown: small tags and cut ends)
chain: MKLLPCKEWAQGIPNPRCWCGADLECAQDQYCAFIPQCRPRSELIKPMDDIYQRPVEFPNLPLKPREE
B37: modified tridegin F58A (protein, not shown: small tags and cut ends)
chain: MKLLPCKEWHQGIPNPRCWCGADLECAQDQYCAFIPQCRPRSELIKPMDDIYQRPVEAPNLPLKPREE
B38: modified tridegin P65A (protein, not shown: small tags and cut ends)
chain: MKLLPCKEWHQGIPNPRCWCGADLECAQDQYCAFIPQCRPRSELIKPMDDIYQRPVEFPNLPLKAREE
B39: modified tridegin I45A (protein, not shown: small tags and cut ends)
chain: MKLLPCKEWHQGIPNPRCWCGADLECAQDQYCAFIPQCRPRSELAKPMDDIYQRPVEFPNLPLKPREE
B40: modified tridegin R39A (protein, not shown: small tags and cut ends)
chain: MKLLPCKEWHQGIPNPRCWCGADLECAQDQYCAFIPQCAPRSELIKPMDDIYQRPVEFPNLPLKPREE

Target: T1, factor XIIIa
Test: cell-based or functional assay

Binder | Relative inhibitory effect (%) at 7.27 µM, recombinant tridegin = 100%
B1 | 7.96%
B2 | 6.3%
B3 | 13.3%
B4 | 13.7%
B5 | 8.64%
B6 | 3.32%
B7 | 9.8%
B8 | 2.49%
B9 | 0.36%
B10 | 0%
B11 | 5.88%
B12 | 24%
B13 | 19.4%
B14 | 1.96%
B15 | 13.7%
B16 | 14.8%
B17 | 5.88%
B18 | 12.3%
B19 | 9.8%
B20 | 0%
B21 | 11.1%
B22 | 0%

Target: T1, factor XIIIa
Test: cell-based or functional assay
Remark: another data set of the same source

Binder | IC50, Berichrom assay (factor XIIIa activity) | Relative inhibitory effect (%) at 5.45 µM, wild type = 100% | Relative inhibitory effect (%) at 7.27 µM (reference)
B23 | 2 to 4 µM | 100% | 100%
B24 | – | 91% | –
B25 | – | 93% | –
B26 | – | 72% | –
B27 | – | 113% | –
B28 | – | 68% | –
B29 | – | 90% | –
B30 | – | 63% | –
B31 | – | 97% | –
B32 | – | 53% | –
B33 | – | 84% | –
B34 | – | 96% | –
B35 | – | 82% | –
B36 | – | 87% | –
B37 | – | 60% | –
B38 | – | 51% | –
B39 | – | 115% | –
B40 | – | 49% | –
